In publication PMC12442443, “Identifying interactions between TDP‐43's N‐terminal and RNA‐binding domains” (Protein Science : A Publication of the Protein Society, 2024):

Target: the molecule itself
Experiment: native gel or EMSA; 4-16% Bis-Tris native gel, Coomassie; 8.125 uM RRM alone or with NTD(1-77) at 0.5:1, 1:1 and 2:1 (NTD:RRM); incubated 10 min at 25 C in 300 mM NaCl, 40 mM HEPES pH 6.5, 4 mM DTT; full shift only at 2:1; also repeated with added RNA

B1: TDP-43(102-260), tandem RNA recognition motifs RRM1 and RRM2 of TAR DNA-binding Protein 43 kilodaltons (domain or fragment, human)
chain: KTSDLIVLGLPWKTTEQDLKEYFSTFGEVLMVQVKKDLKTGHSKGFGFVRFTEYETQVKVMSQRHMIDGRWCDCKLPNSKQSQDEPLRSRKVFVGRCTEDMTEDELREFFSQYGDVMDVFIPKPFRAFAFVTFADDQIAQSLCGEDLIIKGISVHISNA
notes: 15N-labelled (M9 medium with 15NH4Cl) in the CPMG NMR; also called RRMs; RRM12; source: E. coli BL21(DE3), purified (His-Trap, Superdex size exclusion)
In the case of B1, the “stoichiometry N” value is reported as 2.
